The target of experiment [1] is chicken SK2-ARK splice variant, full length, expressed in Xenopus oocytes (chicken). Description: co-IP.
The target of experiment [2] is MBP-tagged SK2-ARK C-terminus (aa 368-553) (chicken). Description: pull-down.
Experiment [3] has as its target MBP-tagged SK2 C-terminus (aa 368-553) (chicken, UniProt Q9PTS9 368-553). Description: pull-down.
Experiment [4] deals with chicken SK2 (isoform lacking the ARK insert), full length, expressed in Xenopus oocytes (chicken, UniProt Q9PTS9 1-553). Description: co-IP.

With “HA-tagged α9/10-nicotinic acetylcholine receptor (chicken α9 and α10-HA subunits) (from UniProt Q9PTS8 28-484; Q9I8C7 27-452) (complex)”, the co-precipitated α9/10-nAChRs, percent of that with SK2 in experiment [1] was 173 % of SK2.

Take “GST-tagged full-length human α-actinin-1 (from UniProt P12814-3 1-914) (natural protein)”: in experiment [2], the bound α-actinin-1, percent of that bound to SK2 was 81.2 % of SK2 and the fold increase in binding with 1 mM CaCl2 against 5 mM BAPTA was 6.8 fold.

Regarding “calmodulin, purified from bovine brain (from UniProt P62157 1-149) (natural protein)”, the co-precipitated CaM with 5 mM BAPTA, percent of that with SK2 in experiment [2] was 142 % of SK2.

B1: GST-tagged full-length human α-actinin-1 (natural protein, UniProt P12814-3 1-914, looked up)
chain: MDHYDSQQTNDYMQPEEDWDRDLLLDPAWEKQQRKTFTAWCNSHLRKAGTQIENIEEDFRDGLKLMLLLEVISGERLAKPERGKMRVHKISNVNKALDFIASKGVKLVSIGAEEIVDGNVKMTLGMIWTIILRFAIQDISVEETSAKEGLLLWCQRKTAPYKNVNIQNFHISWKDGLGFCALIHRHRPELIDYGKLRKDDPLTNLNTAFDVAEKYLDIPKMLDAEDIVGTARPDEKAIMTYVSSFYHAFSGAQKAETAANRICKVLAVNQENEQLMEDYEKLASDLLEWIRRTIPWLENRVPENTMHAMQQKLEDFRDYRRLHKPPKVQEKCQLEINFNTLQTKLRLSNRPAFMPSEGRMVSDINNAWGCLEQVEKGYEEWLLNEIRRLERLDHLAEKFRQKASIHEAWTDGKEAMLRQKDYETATLSEIKALLKKHEAFESDLAAHQDRVEQIAAIAQELNELDYYDSPSVNARCQKICDQWDNLGALTQKRREALERTEKLLETIDQLYLEYAKRAAPFNNWMEGAMEDLQDTFIVHTIEEIQGLTTAHEQFKATLPDADKERLAILGIHNEVSKIVQTYHVNMAGTNPYTTITPQEINGKWDHVRQLVPRRDQALTEEHARQQHNERLRKQFGAQANVIGPWIQTKMEEIGRISIEMHGTLEDQLSHLRQYEKSIVNYKPKIDQLEGDHQLIQEALIFDNKHTNYTMEHIRVGWEQLLTTIARTINEVENQILTRDAKGISQEQMNEFRASFNHFDRDHSGTLGPEEFKACLISLGYDIGNDPQKKTGMMDTDDFRACLISMGYNMGEAEFARIMSIVDPNRLGVVTFQAFIDFMSRETADTDTADQVMASFKILAGDKNYITMDELRRELPPDQAEYCIARMAPYTGPDSVPGALDYMSFSTALYGESDL
Turning to B1, the “fold increase in binding with 1 mM CaCl2 against 5 mM BAPTA” value in experiment [3] amounted to 3.2 fold.

B2: HA-tagged α9/10-nicotinic acetylcholine receptor (chicken α9 and α10-HA subunits) (complex)
chain 1: AKGKYAQMLFNELFEDYSNALRPVEDTDKVLNVTLQITLSQIKDMDERNQILTAYLWIRQSWYDAYLKWDKDKYDGLDSIRIPSNLVWRPDIVLYNKADDDFSEPVNTNVVLRYDGKITWDAPAITKSSCVVDVSYFPFDSQQCNLTFGSWTYNGNQVDIINSLDSGDLSDFVEDVEWEIHGMPAVKNVITYGCCSEPYPDVTFTLILKRKSSFYIFNLLLPCILISFLAPLGFYLPADSGEKVSLGVTVLLALTVFQLMVAEIMPPSENVPLIGKYYIATMTMITASTALTIIIMNVHHCGSEAKPVPQWARVVILDYMSKIFFVYDVGENCTSPRREKEQEHRLEGGDMCRGGDGKSHLSSRNDDSDLKENLNGNWNKSFGVHGENVRENVNCCSCYKMLIKNIEYIANCVRDHKANRAKGIEWKKVAKVMDRFFMWIFFIMVFFMSVLIIGKAA
chain 2: AQGRLAHKLLHDLFANYSSALRPAEDTERALNVTLQVTLSQIIDMDERNQVLTSYLWVRQAWLDAHLAWDKDAYGGIDSIRIPSSYVWRPDIVLYNNADERFGGSMETNVVLRSDGHIMWDSPAITKSSCKVDVSYFPFDGQQCRLTFGSWTYNGNQIDLRNLLDTGDLTDFVENVEWEVLGMPATRNVVTYGCCSEPYPDVTYTLLLRRRASFYIFNLLLPCVMISFLAPLGFYLPADSGEKVSLGVTVLLALTVFQLLVAESMPPSESVPLIGKYYIATMTMITASTALTIFIMNIHHCGPGARPVPPWARRLILHHLARALCVCEVGESCGRPQREGTGGMGPRDPPGEGVEPGLCPRSRCLCHHHAVLSSVGYIAGVFRRHRTAQRRAAEWKKVAKVMDRFFMWVFFLMVFLMSVLVIGKAA
Regarding B2, the “fold change of co-precipitation after BAPTA-AM” value in experiment [4] was 2 fold.

The values are drawn from paper PMC4048344 (Channels, 2014).
